Data reported in publication doi:10.1101/2024.02.27.582253, “Identification of an evolutionary conserved binding motif responsible for the recruitment of NMD factors to the UPF1 helicase” (bioRxiv, 2024).

T1: S. cerevisiae Upf1 helicase domain, Upf1-HD-His6 (residues 221-851) (S. cerevisiae, UniProt P30771 221-851)
T1 construct: Upf1 helicase domain, S. cerevisiae, residues 221-851; residues 224-851 seen in the final model; for the crystal it says only that the protein was purified on TALON resin; source: E. coli BL21 (DE3) Gold, purified (TALON, heparin, SEC); not shown: His6, C-terminal, kept
T1 sequence (looked up): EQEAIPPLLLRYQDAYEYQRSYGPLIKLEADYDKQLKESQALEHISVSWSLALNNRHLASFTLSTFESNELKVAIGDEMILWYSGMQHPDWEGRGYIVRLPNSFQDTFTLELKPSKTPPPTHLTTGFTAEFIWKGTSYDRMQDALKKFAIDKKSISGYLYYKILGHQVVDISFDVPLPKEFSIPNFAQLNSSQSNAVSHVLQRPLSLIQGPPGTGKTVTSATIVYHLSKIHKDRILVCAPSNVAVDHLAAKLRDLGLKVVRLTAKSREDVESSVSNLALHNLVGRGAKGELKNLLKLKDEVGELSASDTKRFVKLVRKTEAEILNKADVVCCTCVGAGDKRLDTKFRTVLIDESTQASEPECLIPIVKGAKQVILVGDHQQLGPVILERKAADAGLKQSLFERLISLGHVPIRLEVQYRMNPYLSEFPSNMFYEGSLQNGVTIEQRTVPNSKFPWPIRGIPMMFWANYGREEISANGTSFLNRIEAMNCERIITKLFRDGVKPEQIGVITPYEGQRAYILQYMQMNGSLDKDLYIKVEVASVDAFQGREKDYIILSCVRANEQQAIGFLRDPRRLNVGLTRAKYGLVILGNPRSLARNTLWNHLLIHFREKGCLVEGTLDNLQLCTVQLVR

B1: His6-ZZ-Nmd4 full-length protein (S. cerevisiae) (natural protein, UniProt Q12129 1-218, looked up)
chain: MTQYNFIIDASAFEKGLGNIKRWCSDCTEAVTLNFYIPTFTLNELDFLQQRRKSFAARESLKFIDRLDDSKFANLKVFIEFPEVLDIILWSDVMEHNDSSGKINIAKLPKRLKNLLKSCIYKCYLEGNEGLHWFLISEDPQIREMAMQCNIPSCSIVDVDSILSKDMNDKSFRESEKFNNMMLKNGTKEESENGREIIRTNFNKTVYASRGTGELWSP
notes: also called full-length Nmd4; His6-ZZ-Nmd4-FL; source: E. coli BL21 (DE3) Gold, purified (Ni-NTA, heparin, SEC; 3C digestion omitted); not shown: His6, N-terminal, kept; ZZ, N-terminal, kept
B2: His6-ZZ-Nmd4 « arm » (residues 168-218) (domain or fragment, S. cerevisiae, UniProt Q12129 168-218, looked up)
chain: NDKSFRESEKFNNMMLKNGTKEESENGREIIRTNFNKTVYASRGTGELWSP
notes: Nmd4 C-terminal arm, S. cerevisiae, residues 168-218; also called « arm » region; source: E. coli BL21 (DE3) Gold, purified; not shown: His6, N-terminal, kept; ZZ, N-terminal, kept

Target: T1, S. cerevisiae Upf1 helicase domain, …
Assay: ITC; His6-ZZ-Nmd4 proteins (260 µM full-length and arm, 330 µM PIN) injected into Upf1-HD-His6 (30-35 µM); 20°C; 100 mM Bis-Tris pH 6.5, 200 mM NaCl, 5 mM MgCl2, 5 mM 2-mercaptoethanol; one-binding site model
Details: both partners purified

| Binder | Kd [nM] |
| --- | --- |
| B1 | 2100 |
| B2 | 1960 |
